Experimental data reported in PMC11358414.

Target: DEP-Venus (DEP domain of Disheveled, DVL) (UniProt O14641)
Assay: NanoBiT-based DEP recruitment BRET assay (BRET titration)
Details: HEK293A cells, FLAG-LgBiT-CAAX cotransfected, baseline-corrected …, parent: est. 0.38, read off a plot

Row | response (value read at the right end of the fitted curve (Venus fluorescence about 27000 arb. units)) [net BRET] | response (value read at the right end of the fitted curve (Venus fluorescence about 23000 arb. units)) [net BRET] | Substance
1 | 0.08 | – | FZD7-SmBiT, wild type (from UniProt O75084) F345A; H382A
2 | – | 0.1 | FZD7-SmBiT, wild type (from UniProt O75084) F345A; W386A
